Measured values: US20240116985A1 (published 2024)
Starred links: 1 amine or outer side, 2 acyl side, 3 side chain; linkers in the order of their positions; H or OH if unused. Positions of bridges follow the written chain, without caps; N, C: chain ends. Non-standard residues stand in square brackets, D forms with d. Primed or numbered codes have the meaning given here. ξ: configuration not given here. PyrS2″ = (S)-3-amino-1-((pent-4-en-1-yloxy)carbonyl)pyrrolidine-3-carboxylic acid (stapling residue), C=CCCCOC(=O)N1CC[C@@](N[*:1])(C(=O)[*:2])C1; B5(18) = 2,2-bis(4-pentenyl)glycine (2-amino-2-(pent-4-en-1-yl)hept-6-enoic acid), stitching residue, C=CCCCC(CCCC=C)(N[*:1])C(=O)[*:2]; B5(4) = 2,2-bis(4-pentenyl)glycine = 2-amino-2-(pent-4-en-1-yl)hept-6-enoic acid (stitching residue), C=CCCCC(CCCC=C)(N[*:1])C(=O)[*:2]; TfeGA = (S)-2-amino-3-((carboxymethyl)(2,2,2-trifluoroethyl)amino)propanoic acid, O=C([C@H](CN(CC(=O)[*:3])CC(F)(F)F)N[*:1])[*:2]; PyrS2 = (S)-3-amino-1-((pent-4-en-1-yloxy)carbonyl)pyrrolidine-3-carboxylic acid, C=CCCCOC(=O)N1CC[C@@](N[*:1])(C(=O)[*:2])C1; PyrS3 = (S)-3-amino-1-((hex-5-en-1-yloxy)carbonyl)pyrrolidine-3-carboxylic acid, C=CCCCCOC(=O)N1CC[C@@](N[*:1])(C(=O)[*:2])C1; B5(7) = 2-amino-2-(pent-4-en-1-yl)hept-6-enoic acid, two olefinic side chains, C=CCCCC(CCCC=C)(N[*:1])C(=O)[*:2]; B5(3) = 2,2-bis(4-pentenyl)glycine (stitching residue), C=CCCCC(CCCC=C)(N[*:1])C(=O)[*:2]; Phe(2-Cl) = N[C@@H](Cc1ccccc1Cl)C(=O)O; Bta = N[C@@H](Cc1csc2ccccc12)C(=O)O; αAllylPro = C=CC[C@@]1(C(=O)O)CCCN1; tBuAla = CC(C)(C)C[C@H](N)C(=O)O; 3Thi = N[C@@H](Cc1ccsc1)C(=O)O; Cha = N[C@@H](CC1CCCCC1)C(=O)O; S8 = C=CCCCCCC[C@](C)(N)C(=O)O; ξβ3hD = NC(CC(=O)O)CC(=O)O; hSer = N[C@@H](CCO)C(=O)O

T1: beta-catenin in DLD1 TCF/LEF luciferase reporter cells (UniProt P35222 1-781)
T1 sequence (looked up): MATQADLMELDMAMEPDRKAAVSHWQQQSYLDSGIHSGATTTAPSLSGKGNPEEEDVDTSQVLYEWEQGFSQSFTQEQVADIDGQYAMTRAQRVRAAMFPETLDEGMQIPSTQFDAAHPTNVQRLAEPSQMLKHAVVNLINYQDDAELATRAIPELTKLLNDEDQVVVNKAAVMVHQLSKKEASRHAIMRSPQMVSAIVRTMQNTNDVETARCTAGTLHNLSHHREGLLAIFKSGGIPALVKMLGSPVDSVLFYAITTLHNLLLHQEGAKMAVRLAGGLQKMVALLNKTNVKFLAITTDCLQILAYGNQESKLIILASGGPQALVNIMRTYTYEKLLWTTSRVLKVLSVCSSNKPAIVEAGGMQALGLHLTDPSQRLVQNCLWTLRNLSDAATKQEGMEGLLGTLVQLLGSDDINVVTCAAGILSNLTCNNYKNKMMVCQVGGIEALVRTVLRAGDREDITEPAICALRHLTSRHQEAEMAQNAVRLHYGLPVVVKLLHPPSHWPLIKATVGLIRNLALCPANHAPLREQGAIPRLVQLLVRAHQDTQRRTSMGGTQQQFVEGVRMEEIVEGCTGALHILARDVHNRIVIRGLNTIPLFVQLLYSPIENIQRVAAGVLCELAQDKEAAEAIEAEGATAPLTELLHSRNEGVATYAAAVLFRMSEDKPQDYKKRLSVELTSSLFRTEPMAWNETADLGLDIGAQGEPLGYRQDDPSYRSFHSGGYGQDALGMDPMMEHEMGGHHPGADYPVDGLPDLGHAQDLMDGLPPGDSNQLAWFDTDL

T2: B-cat-Halo (NanoBRET construct expressed in HEK293 cells) (UniProt P35222 1-781, HaloTag NanoBRET 618 Ligand bound in the assay)
T2 sequence (looked up): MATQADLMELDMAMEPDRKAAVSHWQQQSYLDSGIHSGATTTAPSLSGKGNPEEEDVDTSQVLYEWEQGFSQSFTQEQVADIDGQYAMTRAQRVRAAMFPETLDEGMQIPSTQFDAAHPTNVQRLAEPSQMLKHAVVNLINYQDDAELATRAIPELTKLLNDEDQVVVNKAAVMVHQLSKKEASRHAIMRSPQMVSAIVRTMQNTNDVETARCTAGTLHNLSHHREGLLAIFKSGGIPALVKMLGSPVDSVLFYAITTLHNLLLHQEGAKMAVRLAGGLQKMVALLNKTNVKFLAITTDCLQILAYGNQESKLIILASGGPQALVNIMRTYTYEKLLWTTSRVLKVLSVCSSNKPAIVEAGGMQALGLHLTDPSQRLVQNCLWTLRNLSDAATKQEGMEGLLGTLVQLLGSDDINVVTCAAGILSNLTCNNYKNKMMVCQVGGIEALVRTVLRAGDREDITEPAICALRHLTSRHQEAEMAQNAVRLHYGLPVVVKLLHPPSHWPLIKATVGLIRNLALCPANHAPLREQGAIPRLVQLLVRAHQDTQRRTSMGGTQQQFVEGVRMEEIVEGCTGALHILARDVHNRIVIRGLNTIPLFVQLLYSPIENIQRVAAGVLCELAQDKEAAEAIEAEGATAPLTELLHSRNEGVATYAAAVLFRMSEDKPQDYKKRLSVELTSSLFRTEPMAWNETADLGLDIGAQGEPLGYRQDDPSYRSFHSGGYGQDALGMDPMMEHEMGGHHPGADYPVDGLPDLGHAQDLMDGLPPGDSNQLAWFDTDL

T3: B-cat-Halo (UniProt P35222 1-781)
T3 sequence (looked up): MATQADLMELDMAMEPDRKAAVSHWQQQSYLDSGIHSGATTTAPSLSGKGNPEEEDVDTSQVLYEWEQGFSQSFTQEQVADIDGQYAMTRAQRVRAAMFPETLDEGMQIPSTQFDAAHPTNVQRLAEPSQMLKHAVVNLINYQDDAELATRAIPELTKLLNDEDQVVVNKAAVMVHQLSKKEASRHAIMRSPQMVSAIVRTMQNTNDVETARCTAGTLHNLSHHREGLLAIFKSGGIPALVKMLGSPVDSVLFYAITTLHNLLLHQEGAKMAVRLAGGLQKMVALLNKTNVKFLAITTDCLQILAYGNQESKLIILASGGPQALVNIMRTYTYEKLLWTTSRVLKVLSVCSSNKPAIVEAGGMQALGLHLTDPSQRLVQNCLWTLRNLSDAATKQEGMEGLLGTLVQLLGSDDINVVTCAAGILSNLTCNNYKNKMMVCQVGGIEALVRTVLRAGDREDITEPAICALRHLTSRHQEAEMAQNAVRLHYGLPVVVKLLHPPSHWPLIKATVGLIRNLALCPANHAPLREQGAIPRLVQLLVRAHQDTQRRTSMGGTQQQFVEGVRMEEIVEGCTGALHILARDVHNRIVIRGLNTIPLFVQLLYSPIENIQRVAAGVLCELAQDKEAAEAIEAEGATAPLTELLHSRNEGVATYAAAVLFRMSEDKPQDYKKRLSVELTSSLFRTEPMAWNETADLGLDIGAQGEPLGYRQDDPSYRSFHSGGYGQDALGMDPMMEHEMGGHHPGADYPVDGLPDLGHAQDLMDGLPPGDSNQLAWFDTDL


molecular target: T1, beta-catenin in DLD1 TCF/LEF luciferase …; assay: cell-based or functional assay

| DLD1 reporter assay Abs IC50 | Binder |
| --- | --- |
| > 20 µM | Ac-[αAllylPro]D[tBuAla][B5(18)]DDAAFS[PyrS2″][Phe(2-Cl)][Bta]Q-NH2 (staple 1-4, 4-11) [I-1017] |
| 21.4 µM | Ac-[αAllylPro]D[tBuAla][B5(18)]DNAAFT[PyrS2″][Phe(2-Cl)][Bta]S-NH2 (staple 1-4, 4-11) [I-1016] |
| 11.1 µM | Ac-[αAllylPro]D[tBuAla][B5(3)]D[TfeGA]AAFS[S8][Phe(2-Cl)][Bta][hSer]-NH2 (staple 1-4, 4-11; also: later eluting isomer) [I-999] |
| 3.3 µM | Ac-[αAllylPro]D[tBuAla][B5(18)]D[TfeGA]LAFN[PyrS2″][Phe(2-Cl)][Bta]Q-NH2 (staple 1-4, 4-11) [I-1007] |
| 13 µM | Ac-[αAllylPro]D[tBuAla][B5(18)]D[TfeGA]FAFN[PyrS2″][Phe(2-Cl)][Bta]Q-NH2 (staple 1-4, 4-11) [I-1008] |

The next lines start with the binder.

| Binder | DLD1 reporter assay Abs IC50 |
| --- | --- |
| Ac-[αAllylPro]D[tBuAla][B5(18)]D[TfeGA]ASFN[PyrS2″][Phe(2-Cl)][Bta]Q-NH2 (staple 1-4, 4-11) [I-1004] | > 20 µM |
| Ac-[αAllylPro]D[tBuAla][B5(18)]D[TfeGA]KAFN[PyrS2″][Phe(2-Cl)][Bta]Q-NH2 (staple 1-4, 4-11) [I-1011] | > 20 µM |
| Ac-[αAllylPro]D[tBuAla][B5(3)][3Thi][TfeGA]AAFN[PyrS2″]D[Bta]Q-NH2 (staple 1-4, 4-11) [I-1001] | > 20 µM |
| Ac-[αAllylPro]D[tBuAla][B5(18)]D[TfeGA]ALFN[PyrS2″][Phe(2-Cl)][Bta]Q-NH2 (staple 1-4, 4-11) [I-1002] | > 20 µM |
| Ac-[αAllylPro]D[tBuAla][B5(18)]DDAAFT[PyrS2″][Phe(2-Cl)][Bta]S-NH2 (staple 1-4, 4-11) [I-1015] | 9 µM |
| Ac-[αAllylPro]D[tBuAla][B5(3)]D[TfeGA]AAF[hSer][S8][Phe(2-Cl)][Bta][hSer]-NH2 (staple 1-4, 4-11) [I-1000] | 8 µM |
| Ac-[αAllylPro]D[tBuAla][B5(18)]DDAAFS[PyrS2″][Phe(2-Cl)][Bta]S-NH2 (staple 1-4, 4-11) [I-1019] | 8.3 µM |

molecular target: T2, B-cat-Halo (NanoBRET construct …); assay: cell-based or functional assay

| NanoBRET Abs IC50 | Binder |
| --- | --- |
| 37.3 µM | Ac-[αAllylPro]D[tBuAla][B5(7)]DDAAFQ[PyrS2][3Thi][Bta]H-NH2 (staple 1-4, 4-11) [I-771] |
| > 20 µM | Ac-[αAllylPro]D[tBuAla][B5(7)]DDAAFQ[PyrS2][3Thi][Bta]H-NH2 (staple 1-4, 4-11) [I-772] |
| 13.7 µM | Ac-[αAllylPro]D[tBuAla][B5(7)]D[TfeGA]AAFN[PyrS2][3Thi][Bta]H-NH2 (staple 1-4, 4-11) [I-770] |
| 37.2 µM | Ac-[αAllylPro]D[tBuAla][B5(7)]DDAAFN[PyrS3][3Thi][Bta]Q-NH2 (staple 1-4, 4-11) [I-767] |

Continued, binder first:

| Binder | NanoBRET Abs IC50 |
| --- | --- |
| Ac-[αAllylPro]D[tBuAla][B5(7)]DDAAFQ[PyrS2][3Thi][Bta]Q-NH2 (staple 1-4, 4-11) [I-764] | 30.9 µM |
| Ac-[αAllylPro]D[tBuAla][B5(7)]D[TfeGA]AAFN[PyrS2][3Thi][Bta]H-NH2 (staple 1-4, 4-11) [I-769] | 13 µM |
| Ac-[αAllylPro]D[tBuAla][B5(7)]DDAAFQ[PyrS2][3Thi][Bta]Q-NH2 (staple 1-4, 4-11) [I-763] | 21.3 µM |
| Ac-[αAllylPro]D[tBuAla][B5(7)]DDAAFN[PyrS3][3Thi][Bta]Q-NH2 (staple 1-4, 4-11) [I-768] | 31.4 µM |

molecular target: T3, B-cat-Halo; assay: cell-based or functional assay

| NanoBRET Abs IC50 | Binder |
| --- | --- |
| 14.6 µM | Ac-[αAllylPro]D[tBuAla][B5(4)]DTAAFT[PyrS2″][3Thi][Bta]Q-NH2 (staple 1-4, 4-11) [I-1166] |
| 19.4 µM | Ac-[αAllylPro]D[tBuAla][B5(4)]DTAAFL[PyrS2″][Phe(2-Cl)][Bta]S-NH2 (staple 1-4, 4-11) [I-1172] |
| > 20 µM | Ac-[αAllylPro][ξβ3hD][tBuAla][B5(4)]D[TfeGA]AAFN[PyrS2″][3Thi][Bta]Q-NH2 (staple 1-4, 4-11) [I-1161] |
| 32.6 µM | Ac-[αAllylPro]D[Cha][B5(4)]DTAAFL[PyrS2″][3Thi][Bta]Q-NH2 (staple 1-4, 4-11) [I-1174] |

Further lines, the binder ahead of its results:

| Binder | NanoBRET Abs IC50 |
| --- | --- |
| Ac-[αAllylPro]D[Cha][B5(4)]DTAAFT[PyrS2″][3Thi][Bta]Q-NH2 (staple 1-4, 4-11) [I-1173] | 17.2 µM |
| Ac-[αAllylPro]D[Cha][B5(4)]DTAAFT[PyrS2″][Phe(2-Cl)][Bta]Q-NH2 (staple 1-4, 4-11) [I-1175] | 27.3 µM |
| Ac-[αAllylPro]D[tBuAla][B5(4)]DTAAFT[PyrS2″][Phe(2-Cl)][Bta]Q-NH2 (staple 1-4, 4-11) [I-1168] | 31.4 µM |
| Ac-[αAllylPro]D[tBuAla][B5(4)]DTAAFL[PyrS2″][3Thi][Bta]Q-NH2 (staple 1-4, 4-11) [I-1167] | 11.7 µM |
| Ac-[αAllylPro]D[tBuAla][B5(4)]DTAAFL[PyrS2″][3Thi][Bta]S-NH2 (staple 1-4, 4-11) [I-1171] | 28.8 µM |
| Ac-[αAllylPro]D[tBuAla][B5(4)]DTAAFT[PyrS2″][3Thi][Bta]S-NH2 (staple 1-4, 4-11) [I-1170] | 13.5 µM |
